This is an account of results in WO2016171242A1 (dated 2016).

Test [1] has as its target T1, human PTPRS isoform 2 without signal sequence, FLAG-tagged, expressed from pFLAG-PTPRS-2 (human, UniProt Q13332 30-1948).
T1 construct: not shown: FLAG tag supplied by the vector pFLAG-GW
Kind of test: flow cytometry on transfected 293F cells.

Test [2] deals with T2, human EPHB4 without signal sequence, FLAG-tagged, expressed from pFLAG-EPHB4 (human, UniProt P54760 16-987).
T2 construct: not shown: FLAG tag supplied by the vector pFLAG-GW
T2 sequence: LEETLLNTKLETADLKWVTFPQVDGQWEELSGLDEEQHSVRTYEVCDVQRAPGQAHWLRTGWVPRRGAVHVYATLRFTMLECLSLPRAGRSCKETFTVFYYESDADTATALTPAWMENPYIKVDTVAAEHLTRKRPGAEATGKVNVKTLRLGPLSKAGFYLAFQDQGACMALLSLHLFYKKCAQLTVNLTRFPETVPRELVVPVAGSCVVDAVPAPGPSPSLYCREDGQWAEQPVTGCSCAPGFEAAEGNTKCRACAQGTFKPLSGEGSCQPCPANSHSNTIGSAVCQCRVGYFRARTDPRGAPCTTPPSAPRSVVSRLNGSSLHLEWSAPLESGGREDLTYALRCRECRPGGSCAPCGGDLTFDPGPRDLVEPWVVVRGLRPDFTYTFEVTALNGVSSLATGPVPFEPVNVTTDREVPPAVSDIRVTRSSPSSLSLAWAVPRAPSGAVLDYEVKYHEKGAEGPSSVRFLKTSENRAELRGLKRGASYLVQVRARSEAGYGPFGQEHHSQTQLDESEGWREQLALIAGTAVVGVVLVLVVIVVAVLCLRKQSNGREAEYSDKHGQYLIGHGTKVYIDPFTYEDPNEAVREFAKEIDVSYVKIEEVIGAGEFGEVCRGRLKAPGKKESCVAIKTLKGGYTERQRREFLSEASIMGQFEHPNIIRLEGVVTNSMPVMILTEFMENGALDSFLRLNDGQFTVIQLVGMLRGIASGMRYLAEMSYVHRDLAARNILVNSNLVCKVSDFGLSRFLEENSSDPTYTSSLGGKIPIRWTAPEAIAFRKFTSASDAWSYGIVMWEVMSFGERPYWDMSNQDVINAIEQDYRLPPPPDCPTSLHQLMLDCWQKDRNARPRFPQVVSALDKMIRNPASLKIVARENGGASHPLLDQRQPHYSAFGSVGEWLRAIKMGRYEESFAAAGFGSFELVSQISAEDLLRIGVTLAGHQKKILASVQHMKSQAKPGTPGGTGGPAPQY
The test is described as follows: flow cytometry on transfected 293F cells. For orientation: In flow cytometry, cells or beads pass a laser one at a time.

Test [3] deals with T3, human EPHA5 without signal sequence, FLAG-tagged, expressed from pFLAG-EPHA5 (human, UniProt P54756 56-1037).
T3 construct: not shown: FLAG tag supplied by the vector pFLAG-GW
T3 sequence (P54756 56-1037): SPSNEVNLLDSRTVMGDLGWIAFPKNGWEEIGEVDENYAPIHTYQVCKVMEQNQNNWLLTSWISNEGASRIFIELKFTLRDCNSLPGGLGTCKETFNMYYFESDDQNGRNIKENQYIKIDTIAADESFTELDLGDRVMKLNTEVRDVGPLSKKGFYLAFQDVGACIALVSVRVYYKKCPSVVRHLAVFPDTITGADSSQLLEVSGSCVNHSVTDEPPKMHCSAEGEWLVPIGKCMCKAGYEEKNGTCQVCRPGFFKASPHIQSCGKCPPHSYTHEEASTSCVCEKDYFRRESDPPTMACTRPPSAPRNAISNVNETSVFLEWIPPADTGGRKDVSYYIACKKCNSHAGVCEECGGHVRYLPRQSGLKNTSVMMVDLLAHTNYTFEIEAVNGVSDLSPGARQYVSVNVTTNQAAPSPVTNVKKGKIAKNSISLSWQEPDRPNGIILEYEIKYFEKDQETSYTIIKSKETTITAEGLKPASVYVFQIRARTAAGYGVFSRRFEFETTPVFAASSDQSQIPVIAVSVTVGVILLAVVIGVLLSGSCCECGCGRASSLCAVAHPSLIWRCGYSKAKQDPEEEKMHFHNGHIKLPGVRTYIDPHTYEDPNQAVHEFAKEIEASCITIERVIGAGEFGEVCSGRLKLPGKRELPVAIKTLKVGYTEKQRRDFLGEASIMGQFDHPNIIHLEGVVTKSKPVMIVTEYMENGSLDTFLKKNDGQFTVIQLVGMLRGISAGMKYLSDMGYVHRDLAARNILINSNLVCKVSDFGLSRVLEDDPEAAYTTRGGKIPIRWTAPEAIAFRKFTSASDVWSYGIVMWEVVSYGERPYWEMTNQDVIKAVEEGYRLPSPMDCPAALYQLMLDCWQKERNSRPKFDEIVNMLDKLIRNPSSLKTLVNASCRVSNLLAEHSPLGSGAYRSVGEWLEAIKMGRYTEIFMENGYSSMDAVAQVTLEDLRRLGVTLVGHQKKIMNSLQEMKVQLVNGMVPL
Kind of test: flow cytometry on transfected 293F cells.

For test [4], the target named is T4, human EPHA7 without signal sequence, FLAG-tagged, expressed from pFLAG-EPHA7 (human, UniProt Q15375 28-998).
T4 construct: not shown: FLAG tag supplied by the vector pFLAG-GW
T4 sequence (Q15375 28-998): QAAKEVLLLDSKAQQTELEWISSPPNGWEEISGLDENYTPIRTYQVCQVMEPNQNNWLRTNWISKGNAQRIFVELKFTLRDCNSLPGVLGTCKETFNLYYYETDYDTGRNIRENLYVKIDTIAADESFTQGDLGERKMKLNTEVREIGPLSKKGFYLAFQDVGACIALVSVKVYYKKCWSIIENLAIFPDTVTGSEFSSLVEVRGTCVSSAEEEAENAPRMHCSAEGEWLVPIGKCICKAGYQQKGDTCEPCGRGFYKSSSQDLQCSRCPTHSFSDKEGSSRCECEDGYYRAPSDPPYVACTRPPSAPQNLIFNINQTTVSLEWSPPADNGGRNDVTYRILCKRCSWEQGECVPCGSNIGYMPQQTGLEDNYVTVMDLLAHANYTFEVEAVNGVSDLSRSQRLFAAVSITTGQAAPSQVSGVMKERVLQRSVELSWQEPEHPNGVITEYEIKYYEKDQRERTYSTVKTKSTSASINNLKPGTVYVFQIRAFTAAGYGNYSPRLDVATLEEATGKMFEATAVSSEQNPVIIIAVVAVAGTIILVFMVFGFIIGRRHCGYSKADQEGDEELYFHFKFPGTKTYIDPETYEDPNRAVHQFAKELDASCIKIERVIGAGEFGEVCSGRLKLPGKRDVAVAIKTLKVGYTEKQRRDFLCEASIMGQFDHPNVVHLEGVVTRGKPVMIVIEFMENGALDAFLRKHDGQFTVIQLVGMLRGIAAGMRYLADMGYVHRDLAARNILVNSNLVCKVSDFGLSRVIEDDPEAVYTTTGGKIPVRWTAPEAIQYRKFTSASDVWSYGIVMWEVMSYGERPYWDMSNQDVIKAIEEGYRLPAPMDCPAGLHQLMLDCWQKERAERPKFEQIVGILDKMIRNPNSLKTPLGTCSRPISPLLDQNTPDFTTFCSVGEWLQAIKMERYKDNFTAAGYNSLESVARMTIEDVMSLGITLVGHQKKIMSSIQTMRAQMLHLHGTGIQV
Kind of test: flow cytometry on transfected 293F cells.

In test [5] the target is T5, human EPHA3 without signal sequence, FLAG-tagged, expressed from pFLAG-EPHA3 (human, UniProt P29320 21-983).
T5 construct: not shown: FLAG tag supplied by the vector pFLAG-GW
T5 sequence: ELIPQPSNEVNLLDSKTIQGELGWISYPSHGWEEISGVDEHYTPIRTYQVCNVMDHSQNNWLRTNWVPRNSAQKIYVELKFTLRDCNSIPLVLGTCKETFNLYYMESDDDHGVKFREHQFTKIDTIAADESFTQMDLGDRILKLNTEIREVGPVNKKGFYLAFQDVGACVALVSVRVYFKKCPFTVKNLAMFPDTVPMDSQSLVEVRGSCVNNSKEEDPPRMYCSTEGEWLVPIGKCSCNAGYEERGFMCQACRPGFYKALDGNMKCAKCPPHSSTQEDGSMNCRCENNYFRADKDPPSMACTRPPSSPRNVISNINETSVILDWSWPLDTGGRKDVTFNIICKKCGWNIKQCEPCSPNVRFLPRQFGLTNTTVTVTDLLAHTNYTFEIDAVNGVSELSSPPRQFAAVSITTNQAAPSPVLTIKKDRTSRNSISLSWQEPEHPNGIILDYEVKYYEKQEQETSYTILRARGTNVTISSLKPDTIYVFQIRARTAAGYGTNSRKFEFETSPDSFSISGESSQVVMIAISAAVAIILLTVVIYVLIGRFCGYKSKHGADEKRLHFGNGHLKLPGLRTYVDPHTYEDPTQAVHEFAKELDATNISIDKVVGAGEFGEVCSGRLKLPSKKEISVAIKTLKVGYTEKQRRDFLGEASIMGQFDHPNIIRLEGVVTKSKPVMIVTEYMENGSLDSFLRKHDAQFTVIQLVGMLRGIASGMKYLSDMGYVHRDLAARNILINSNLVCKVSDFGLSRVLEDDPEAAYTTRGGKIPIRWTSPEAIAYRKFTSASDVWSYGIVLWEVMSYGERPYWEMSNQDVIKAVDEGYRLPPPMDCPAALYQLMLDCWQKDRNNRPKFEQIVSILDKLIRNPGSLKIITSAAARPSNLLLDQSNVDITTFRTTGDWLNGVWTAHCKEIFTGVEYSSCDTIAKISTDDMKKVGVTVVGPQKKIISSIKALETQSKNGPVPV
The test is described as follows: flow cytometry on transfected 293F cells.

Test [6] concerns the target T6, human EPHA2 without signal sequence, FLAG-tagged, expressed from pFLAG-EPHA2 (human, UniProt P29317 24-976).
T6 construct: formalin-fixed, paraffin-embedded; not shown: FLAG tag supplied by the vector pFLAG-GW (from pFLAG-myc-CMV19)
Kind of test: immunohistochemistry on formalin-fixed, paraffin-embedded 293F cells transiently expressing EPHA2; antibody at 2.5 μg/mL.

Test [7] addresses T7, endogenous human EPHA2 (on MDA-MB-231 cells or 293F cells) (human, UniProt P29317 24-976).
T7 construct: Untagged protein made by the cell lines themselves; also called endogenous EPHA2; EPHA2 endogenously expressed MDA-MB-231 cells
Kind of test: immunohistochemistry on formalin-fixed, paraffin-embedded MDA-MB-231 cells.

T6 sequence (P29317 24-976): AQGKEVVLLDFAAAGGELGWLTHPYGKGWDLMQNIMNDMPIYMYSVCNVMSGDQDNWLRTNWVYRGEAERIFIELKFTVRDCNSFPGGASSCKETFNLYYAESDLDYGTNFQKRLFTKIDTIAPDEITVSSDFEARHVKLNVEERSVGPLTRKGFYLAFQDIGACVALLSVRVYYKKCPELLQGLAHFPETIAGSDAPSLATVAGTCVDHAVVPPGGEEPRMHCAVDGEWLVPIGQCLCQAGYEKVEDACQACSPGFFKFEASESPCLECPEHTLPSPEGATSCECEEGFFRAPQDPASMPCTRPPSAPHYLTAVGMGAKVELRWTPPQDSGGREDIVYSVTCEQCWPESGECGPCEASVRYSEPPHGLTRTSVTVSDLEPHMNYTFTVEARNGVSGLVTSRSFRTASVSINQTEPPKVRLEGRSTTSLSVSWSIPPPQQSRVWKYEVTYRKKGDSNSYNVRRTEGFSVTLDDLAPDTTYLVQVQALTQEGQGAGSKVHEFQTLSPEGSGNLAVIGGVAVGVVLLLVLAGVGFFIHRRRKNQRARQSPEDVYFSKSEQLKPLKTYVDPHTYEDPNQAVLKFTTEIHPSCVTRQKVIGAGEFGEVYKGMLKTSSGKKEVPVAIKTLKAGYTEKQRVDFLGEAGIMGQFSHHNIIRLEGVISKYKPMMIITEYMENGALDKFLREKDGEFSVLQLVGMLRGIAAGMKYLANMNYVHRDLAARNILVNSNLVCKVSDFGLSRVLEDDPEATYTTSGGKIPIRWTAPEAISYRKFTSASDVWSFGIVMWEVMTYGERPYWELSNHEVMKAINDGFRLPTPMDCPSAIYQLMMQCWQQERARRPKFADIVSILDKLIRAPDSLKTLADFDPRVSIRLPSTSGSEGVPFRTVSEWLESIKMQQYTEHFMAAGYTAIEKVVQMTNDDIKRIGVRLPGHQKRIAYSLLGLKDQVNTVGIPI
T7 sequence (P29317 24-976): as above

B1: mouse anti-human EPHA2 antibody A201 (antibody, V domains shown)
VH: EVQLQQSGAELVKPGASVKLSCTVSGFTFKDTYVHWVKQRPEQGLEWIGRIDPANANTKYDPKFQGKASITADTSSNTAYLQLSSLPSEDTAVYYCAAYGKSAWFAYWGQGTLVTVSA
VL: DIQMTQTTSSLSASLGDRVTISCRASQDIGNYLNWYQQKPDGTVKVLIYYTSRLHSGVPSRFSGSGSGTDYSLTISNLEQEDIATYFCQQGHSLPPTFGGGTKLEIKR
notes: Mouse monoclonal antibody purified from hybridoma supernatant, isotype IgG1; also called A201 antibody
For B1, the binding result is recorded as “no binding” in test [1]; “no binding” in test [2]; “no binding” in test [3]; “no binding” in test [4]; “no binding” in test [5]; “binds” in test [6]. The binding result in test [7] is on record as “binds”.

B2: mouse anti-human EPHA2 antibody A205 (antibody, V domains shown)
VH: QIQLVQSGPELKKPGETVKISCKASGYTFTDYSMNWVKQAPGKGLKWMGWINTYTGEPTYADDFKGRFAFSLETSASTAYLQINNLKNEDTATYFCASPISLLRLLDYWGQGTTLTVSS
VL: DVVMTQTPLSLPVSLGDQASIPCRSSQSLVHSNGNTYLHWYLQKPGQSPKLLIYKVSNRFSGVPDRFSGSGSGTDFTLKISRVEAEDLGVYFCSQSTHVPWTFGGGTKLEIKR
notes: Mouse monoclonal antibody purified from hybridoma supernatant, isotype IgG2b; also called A205 antibody
With B2, the binding result was “no binding” in test [1]; “no binding” in test [2]; “no binding” in test [3]; “no binding” in test [4]; “no binding” in test [5]; “binds” in test [6]. Moreover, the binding result in test [7] was “binds”.
